In US20260103629A1 (YALE UNIVERSITY, published 2026):

Molecular target: T1, asialofetuin (Sigma-Aldrich A4781), coated on glass (UniProt P12763 19-359, an extensively glycosylated protein (so in the source))
T1 construct: also called asialofetuin-coated surface
T1 sequence: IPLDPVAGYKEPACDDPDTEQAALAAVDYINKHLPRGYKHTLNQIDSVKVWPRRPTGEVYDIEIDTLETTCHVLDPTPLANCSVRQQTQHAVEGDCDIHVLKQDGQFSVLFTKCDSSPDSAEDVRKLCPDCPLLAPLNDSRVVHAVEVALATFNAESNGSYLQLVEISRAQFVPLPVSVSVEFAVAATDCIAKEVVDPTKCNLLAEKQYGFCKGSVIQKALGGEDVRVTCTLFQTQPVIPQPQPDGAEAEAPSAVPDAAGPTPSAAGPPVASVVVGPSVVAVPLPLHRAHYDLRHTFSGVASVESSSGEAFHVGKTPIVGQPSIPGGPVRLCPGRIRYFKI
Test: in situ anti-FLAG immunostaining of biofilms grown on asialofetuin-coated glass

B1: Bap1 (Biofilm-Associated Protein 1 of V. cholerae, wild type), tagged with 3xFLAG at the C-terminus (other)
chain: SSSSDIQTKLKWSWSTSVFHPESNQVMAAPIVVQLNDDNGDGKIDEKDVADIIVVTFEGNKYANGGYIRALSGVDGSELWSYSNGGVIADARYAPAAADLDGDGLIEIVSTSALTPYINILDHQGNIKKQLLKSASGWRSVGDIALADINGDGNIEILAADGVYSYESGLLFSHDWAPSSIAFDSNGDGQREVFANGTLYQNNGAYLWQYQANDTVWFSSVANLDGDDKPELVVSVPASLSTPENSEIAVLEHDGSVKWRVNNLSNPGGSVQAVSSFLGKPSSSATTVDAQSAVYGYTDWAHQQRVLAENHQLAIRSGAVVDAIGANSQNMIGGSGGSLSTIDTSKVRAIDVTYGKNKYTWKYGVLEMSFTLDNGAKVTVGSKDSAFTYLGLEWKTKTVPYLGVEWRTKTVSYWFFGWHTKQVAYLAPVWKEKTIPYAVPVTLSKSTTVRYDIPQGSQLLGMNVWSKEKHLFKHKQQVNAVQFLVGKVTADQSHMGIVYAGYYAVDMYDAQGNKVWSVANDDLNSGKIGVSAYDFTGDGIDEVLVQDRLRMRILDGQTGRVMGIIANSSGTLWEYPVVADLEGNNNASLIMVANDYDRESQVNHGVFVYESANPSKPWRNATRIWNQYAFNFSDINANGTIPTNAQPSWLTHNSFRSATIRVPLK
notes: also called VC1888; WT Bap1; not shown: C-terminal 3xFLAG tag
- binding result: no binding
